Several values for one entry are separate records, joined by “and”; a condition that tells them apart may be missing. Equal entries are not always repeated.
Assays:
[1] = molecular target: E. coli initiation factor 2 (IF2) (E. coli) (UniProt P0A705); experiment: BLI; biotinylated protein ([…] load) immobilised on High Precision Streptavidin (SAX) tips, E. coli 70S ribosome as analyte; Octet RED96e, 30 °C, 1,000 rpm; ribosome buffer 20 mM Tris HCl pH 7.5, 60 mM NH4Cl, 7.5 mM Mg(CH3COO)2, 0.5 mM EDTA, 6 mM βME with 0.1% BSA and 0.02% Tween-20; IF2 pre-incubated with GDPNP; Kd from the fit of equilibrium responses, double-referenced
[2] = molecular target: P. falciparum translation enhancing factor C-terminal domain (PTEF-CTD) (P. falciparum); experiment: as above

**Q.** Which Kd [1] does the source give for E. coli 70S ribosome (complex) here?
**A.** 9.3 nM and 2.7 nM and 1.5 nM

**Q.** And the Kd [2]?
**A.** 426 nM and 313 nM and 515 nM
